Reference: patent publication US8889408B2, “Factor taking part in transcription control” (Sony Corporation, priority 2002, dated 2014)

What was measured:
HDAC6 = biological target: T1, HDAC6 (Homo sapiens, UniProt Q9UBN7); assay: Immunoprecipitation of GFP-HDART with Flag-HDAC in 293 cells; assay type: binding; details: co-transfected 293 cells; anti-FLAG immunoprecipitation
T1 construct: expressed in transfected cells; host or cells: 293 cells
T1 sequence (Q9UBN7 1-1215): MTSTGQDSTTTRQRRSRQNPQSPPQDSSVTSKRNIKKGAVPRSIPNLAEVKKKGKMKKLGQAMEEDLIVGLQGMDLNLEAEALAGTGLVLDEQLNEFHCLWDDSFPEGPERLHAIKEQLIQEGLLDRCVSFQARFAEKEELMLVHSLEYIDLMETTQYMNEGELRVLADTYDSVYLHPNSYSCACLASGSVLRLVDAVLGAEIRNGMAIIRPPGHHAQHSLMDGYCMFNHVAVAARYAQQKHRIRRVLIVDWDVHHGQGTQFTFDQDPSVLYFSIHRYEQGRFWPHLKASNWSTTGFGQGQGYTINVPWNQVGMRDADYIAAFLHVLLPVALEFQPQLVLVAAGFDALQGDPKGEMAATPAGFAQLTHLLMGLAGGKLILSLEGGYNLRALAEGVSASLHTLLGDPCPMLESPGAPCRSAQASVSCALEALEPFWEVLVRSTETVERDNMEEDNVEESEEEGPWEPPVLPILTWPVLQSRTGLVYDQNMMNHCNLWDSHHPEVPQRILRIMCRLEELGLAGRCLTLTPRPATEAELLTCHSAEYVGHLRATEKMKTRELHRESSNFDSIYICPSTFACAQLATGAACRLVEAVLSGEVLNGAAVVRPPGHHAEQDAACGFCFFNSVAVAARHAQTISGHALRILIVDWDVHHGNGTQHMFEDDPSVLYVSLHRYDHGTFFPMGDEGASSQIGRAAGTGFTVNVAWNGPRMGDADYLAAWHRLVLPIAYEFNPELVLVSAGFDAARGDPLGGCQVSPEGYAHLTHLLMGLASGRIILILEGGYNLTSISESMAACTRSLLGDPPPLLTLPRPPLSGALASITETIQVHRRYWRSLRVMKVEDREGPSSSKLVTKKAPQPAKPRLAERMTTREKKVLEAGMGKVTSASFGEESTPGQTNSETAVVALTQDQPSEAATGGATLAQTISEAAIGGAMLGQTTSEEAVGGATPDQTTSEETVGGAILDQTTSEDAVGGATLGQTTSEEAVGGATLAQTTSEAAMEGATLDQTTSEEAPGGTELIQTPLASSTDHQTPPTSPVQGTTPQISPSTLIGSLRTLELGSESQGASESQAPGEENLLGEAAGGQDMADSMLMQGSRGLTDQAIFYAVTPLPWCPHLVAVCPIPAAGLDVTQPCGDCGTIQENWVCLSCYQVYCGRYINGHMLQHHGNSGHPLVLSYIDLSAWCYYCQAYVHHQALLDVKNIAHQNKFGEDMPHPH
Experimental: (§1) Flag-HDACs expression vectors capable of expressing different types of HDAC (1, 3, 4 or 6) and a GFP-HDART expression vector were, respectively, co-transfected with 293 cells in the same manner as in Example 2, and cell extracts were prepared 24 hours after the transfection. The respective cell extracts were incubated with an anti-Flag antibody, followed by immunoprecipitation. The resulting immunoprecipitate was isolated with SDS-PAGE and an isolated pattern was transferred to a membrane, followed by immunoblotting with use of an anti-Flag antibody or […]. For reference, in order to confirm the expression of GFP-HDART protein in the respective cells, individual samples prior to the immunoprecipitation were similarly developed with SDS-PAGE to conduct immunoblotting with use of an anti-GFP antibody. […] The kinds of HDAC's from the left side of the figure are as follows: lane 1, HDAC1; lane 3, HDAC3; lane 4, HDAC4; and lane 5, HDAC6. It will be noted that lane 2 is for the sample in which GFP-HDART alone was expressed.

HDAC1 = biological target: T2, HDAC1 (Homo sapiens, UniProt Q13547); assay: as above; assay type: binding; details: co-transfected 293 cells; anti-FLAG immunoprecipitation
T2 construct: made in house
T2 sequence (Q13547 whole entry, species assumed): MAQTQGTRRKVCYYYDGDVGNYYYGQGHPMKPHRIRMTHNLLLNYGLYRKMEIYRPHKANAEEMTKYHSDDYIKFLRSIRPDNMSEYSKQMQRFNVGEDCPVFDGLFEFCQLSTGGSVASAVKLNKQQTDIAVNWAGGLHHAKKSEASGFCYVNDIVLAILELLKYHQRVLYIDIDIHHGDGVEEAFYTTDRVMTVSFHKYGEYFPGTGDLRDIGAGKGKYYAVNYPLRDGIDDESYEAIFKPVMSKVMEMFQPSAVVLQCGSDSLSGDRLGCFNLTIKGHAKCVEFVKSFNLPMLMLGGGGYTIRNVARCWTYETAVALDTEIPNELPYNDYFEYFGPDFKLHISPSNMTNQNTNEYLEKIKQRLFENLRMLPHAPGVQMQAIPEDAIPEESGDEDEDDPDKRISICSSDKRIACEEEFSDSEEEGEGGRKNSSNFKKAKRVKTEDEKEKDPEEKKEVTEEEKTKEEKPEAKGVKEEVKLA
Experimental: as §1

HDAC4 = biological target: T3, HDAC4 (Homo sapiens, UniProt P56524); assay: as above; assay type: binding; details: co-transfected 293 cells; anti-FLAG immunoprecipitation
T3 construct: expressed in transfected cells; host or cells: 293 cells
T3 sequence (P56524 whole entry, species assumed): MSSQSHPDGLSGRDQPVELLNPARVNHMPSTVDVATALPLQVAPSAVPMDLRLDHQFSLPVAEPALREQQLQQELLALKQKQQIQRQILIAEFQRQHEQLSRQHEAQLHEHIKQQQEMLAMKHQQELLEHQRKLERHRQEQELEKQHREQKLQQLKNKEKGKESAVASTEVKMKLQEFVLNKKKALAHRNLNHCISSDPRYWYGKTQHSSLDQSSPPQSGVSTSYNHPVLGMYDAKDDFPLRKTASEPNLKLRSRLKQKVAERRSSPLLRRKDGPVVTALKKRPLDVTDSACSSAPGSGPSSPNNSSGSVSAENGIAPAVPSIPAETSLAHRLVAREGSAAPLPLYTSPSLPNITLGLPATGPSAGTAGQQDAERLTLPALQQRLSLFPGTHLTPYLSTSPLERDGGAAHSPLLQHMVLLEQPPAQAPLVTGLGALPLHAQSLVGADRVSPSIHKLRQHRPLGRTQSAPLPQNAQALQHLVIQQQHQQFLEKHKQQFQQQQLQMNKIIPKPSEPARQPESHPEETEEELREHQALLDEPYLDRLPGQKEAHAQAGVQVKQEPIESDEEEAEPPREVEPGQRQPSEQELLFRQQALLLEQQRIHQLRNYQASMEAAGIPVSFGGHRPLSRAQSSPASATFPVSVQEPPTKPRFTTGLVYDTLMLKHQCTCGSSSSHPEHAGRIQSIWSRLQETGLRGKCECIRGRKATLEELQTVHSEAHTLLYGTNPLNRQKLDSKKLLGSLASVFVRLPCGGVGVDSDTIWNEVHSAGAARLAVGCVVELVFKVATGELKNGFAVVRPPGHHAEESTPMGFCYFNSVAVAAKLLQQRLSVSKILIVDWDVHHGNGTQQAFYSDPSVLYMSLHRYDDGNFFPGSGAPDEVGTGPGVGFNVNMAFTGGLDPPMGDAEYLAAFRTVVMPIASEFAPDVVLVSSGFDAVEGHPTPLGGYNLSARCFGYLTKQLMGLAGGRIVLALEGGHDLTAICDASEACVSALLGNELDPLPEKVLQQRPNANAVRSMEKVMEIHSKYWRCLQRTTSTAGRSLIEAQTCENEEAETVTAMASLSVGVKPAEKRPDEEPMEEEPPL
Experimental: as §1

[1] = test system: Gal4 reporter plasmid (pGal4-Luciferase); assay: Gal4 reporter (luciferase) promoter repression in NIH3T3 cells; assay type: cell-based
Text: Assuming that HDART takes part in more direct inhibition, it is expected that it has an autonomous repression function. To confirm the above expectation, in order that HDART can bind to DNA the full-length HDART cDNA was fused to Gal4 DNA binding region (GAL4DBD: a region having only a binding region with GAL4DNA and lacking a transcription control region) to analyze whether the transcription from the GAL4A promoter could be regulated within NIH3T3 cells.
More particularly, a Gal4 DBD-HDART plasmid capable of expressing a full-length HDART and Gal4 DBD fused protein was transfected in different amounts (0, 0.1, 0.3, and 0.5 μg) into NIH3T3 cells previously prepared to contain Gal4 reporter plasmid (pGal4-Luciferase). It should be noted that in order to make a uniform total amount of DNA used for the transfection, the amount of an expression vector was equalized to 0.5 μg by adding the appropriate amount of a vacant vector of Gal4 DBD in each transfection. 24 hours after the transfection, the expression activity (Luciferase activity) of reporter genes from the promoter was analyzed. The luciferase activity for each sample is indicated as a corrected value based on the luciferase activity obtained by introduction of a vacant vector alone as a reference (100%) (FIG. 8). It will be noted that the results of the analysis were indicated as an average of the results of three experiments, and a standard deviation is indicated as an error bar (FIG. 8A). Similar analyses were made using a different type of cell, U-205 cell, with Gal4 DBD-HDART (in an amount of 0 or 0.5 μg) (FIG. 8B).

HDAC3 = HDAC3 (Homo sapiens, UniProt O15379); assay: Immunoprecipitation of GFP-HDART with Flag-HDAC in 293 cells; assay type: binding; design: expressed in transfected cells; host or cells: 293 cells; details: co-transfected 293 cells; anti-FLAG immunoprecipitation
HDAC3, sequence (O15379 whole entry, species assumed): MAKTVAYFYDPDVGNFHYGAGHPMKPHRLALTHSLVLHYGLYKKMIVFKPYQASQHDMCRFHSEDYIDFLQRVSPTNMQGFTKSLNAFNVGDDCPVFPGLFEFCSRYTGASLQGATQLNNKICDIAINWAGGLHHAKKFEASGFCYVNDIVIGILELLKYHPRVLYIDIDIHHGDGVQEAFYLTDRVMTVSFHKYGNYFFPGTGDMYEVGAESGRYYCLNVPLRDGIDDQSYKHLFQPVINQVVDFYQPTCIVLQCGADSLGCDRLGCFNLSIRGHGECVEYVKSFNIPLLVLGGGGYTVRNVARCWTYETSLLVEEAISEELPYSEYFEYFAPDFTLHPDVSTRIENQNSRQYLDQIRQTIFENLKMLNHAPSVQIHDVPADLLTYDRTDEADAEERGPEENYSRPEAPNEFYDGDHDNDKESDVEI
Experimental: as §1

- interaction with HDAC6 (HDAC6): exhibits interaction
- interaction with HDAC1 (HDAC1): exhibits interaction
- interaction with HDAC4 (HDAC4): exhibits interaction
- interaction with HDAC3 (HDAC3): exhibits interaction
B1: HDART: HDAC associated repressor TPR protein, 855 amino acids, SEQ ID NO: 2; transcription repressing factor, used as fusions or expressed from vector (protein, listed as Homo sapiens)
chain: MVVMARLSRPERPDLVFEEEDLPYEEEIMRNQFSVKCWLRYIEFKQGAPKPRLNQLYERALKLLPCSYKLWYRYLKARRAQVKHRCVTDPAYEDVNNCHERAFVFMHKMPRLWLDYCQFLMDQGRVTHTRRTFDRALRALPITQHSRIWPLYLRFLRSHPLPETAVRGYRRFLKLSPESAEEYIEYLKSSDRLDEAAQRLATVVNDERFVSKAGKSNYQLWHELCDLISQNPDKVQSLNVDAIIRGGLTRFTDQLGKLWCSLADYYIRSGHFEKARDVYEEAIRTVMTVRDFTQVFDSYAQFEESMIAAKMETASELGREEEDDVDLELRLARFEQLISRRPLLLNSVLLRQNPHHVHEWHKRVALHQGRPREIINTYTEAVQTVDPFKATGKPHTLWVAFAKFYEDNGQLDDARVILEKATKVNFKQVDDLASVWCQCGELELRHENYDEALRLLRKATALPARRAEYFDGSEPVQNRVYKSLKVWSMLADLEESLGTFQSTKAVYDRILDLRIATPQIVINYAMFLEEHKYFEESFKAYERGISLFKWPNVSDIWSTYLTKFIARYGGRKLERARDLFEQALDGCPPKYAKTLYLLYAQLEEEWGLARHAMAVYERATRAVEPAQQYDMFNIYIKRAAEIYGVTHTRGIYQKAIEVLSDEHAREMCLRFADMECKLGEIDRARAIYSFCSQICDPRTTGAFWQTWKDFEVRHGNEDTIKEMLRIRRSVQATYNTQVNFMASQMLKVSGSATGTVSDLAPGQSGMDDMKLLEQRAEQLAAEAERDQPLRAQSKILFVRSDASREELAELAQQVNPEEIQLGEDEDEDEMDLEPNEVRLEQQSVPAAVFGSLKED
- promoter activity ([1]; Gal4 DBD-HDART plasmid 0, 0.1, 0.3, 0.5 μg, NIH-3T3 cells): significantly inhibits
- lowering of the expression of luciferase ([1]; Gal4 DBD-HDART plasmid, highest concentration 0.5 μg, NIH-3T3 cells, 24 hours after transfection, vacant vector = 100%): 80%
- expression inhibition of luciferase ([1]; HDART not having a GAL4 DNA binding region): not observed
